{"source": "paper PMC10234888", "about": "“Upregulation of glycolytic enzyme PFKFB3 by deubiquitinase OTUD4 promotes cardiac fibrosis post myocardial infarction” (Journal of Molecular Medicine (Berlin, Germany), 2023)", "binders": {"B1": {"name": "human recombinant PFKFB3 protein (enzyme, UniProt Q16875 1-520, looked up)", "chain": "MPLELTQSRVQKIWVPVDHRPSLPRSCGPKLTNSPTVIVMVGLPARGKTYISKKLTRYLNWIGVPTKVFNVGEYRREAVKQYSSYNFFRPDNEEAMKVRKQCALAALRDVKSYLAKEGGQIAVFDATNTTRERRHMILHFAKENDFKAFFIESVCDDPTVVASNIMEVKISSPDYKDCNSAEAMDDFMKRISCYEASYQPLDPDKCDRDLSLIKVIDVGRRFLVNRVQDHIQSRIVYYLMNIHVQPRTIYLCRHGENEHNLQGRIGGDSGLSSRGKKFASALSKFVEEQNLKDLRVWTSQLKSTIQTAEALRLPYEQWKALNEIDAGVCEELTYEEIRDTYPEEYALREQDKYYYRYPTGESYQDLVQRLEPVIMELERQENVLVICHQAVLRCLLAYFLDKSAEEMPYLKCPLHTVLKLTPVAYGCRVESIYLNVESVCTHRERSEDAKKGPNPLMRRNSVTPLASPEPTKKPRINSFEEHVASTSAALPSCLPPEVPTQLPGQNMKGSRSSADSSRKH", "notes": "phosphofructokinase-2/fructose-2,6-bisphosphatase 3 (PFKFB3), human, recombinant protein from Origene; No catalogue number is printed; also called phosphofructokinase-2/fructose-2,6-bisphosphatase 3; source: bought: Origene"}}, "target": "T1, OTUD4 human recombinant protein (human, UniProt Q01804 1-1114)", "T1 construct": "deubiquitinase OTUD4, human, recombinant protein from Origene; No catalogue number is printed; also called deubiquitinase OTUD4; source: bought: Origene Technologies, Inc", "T1 sequence (looked up)": "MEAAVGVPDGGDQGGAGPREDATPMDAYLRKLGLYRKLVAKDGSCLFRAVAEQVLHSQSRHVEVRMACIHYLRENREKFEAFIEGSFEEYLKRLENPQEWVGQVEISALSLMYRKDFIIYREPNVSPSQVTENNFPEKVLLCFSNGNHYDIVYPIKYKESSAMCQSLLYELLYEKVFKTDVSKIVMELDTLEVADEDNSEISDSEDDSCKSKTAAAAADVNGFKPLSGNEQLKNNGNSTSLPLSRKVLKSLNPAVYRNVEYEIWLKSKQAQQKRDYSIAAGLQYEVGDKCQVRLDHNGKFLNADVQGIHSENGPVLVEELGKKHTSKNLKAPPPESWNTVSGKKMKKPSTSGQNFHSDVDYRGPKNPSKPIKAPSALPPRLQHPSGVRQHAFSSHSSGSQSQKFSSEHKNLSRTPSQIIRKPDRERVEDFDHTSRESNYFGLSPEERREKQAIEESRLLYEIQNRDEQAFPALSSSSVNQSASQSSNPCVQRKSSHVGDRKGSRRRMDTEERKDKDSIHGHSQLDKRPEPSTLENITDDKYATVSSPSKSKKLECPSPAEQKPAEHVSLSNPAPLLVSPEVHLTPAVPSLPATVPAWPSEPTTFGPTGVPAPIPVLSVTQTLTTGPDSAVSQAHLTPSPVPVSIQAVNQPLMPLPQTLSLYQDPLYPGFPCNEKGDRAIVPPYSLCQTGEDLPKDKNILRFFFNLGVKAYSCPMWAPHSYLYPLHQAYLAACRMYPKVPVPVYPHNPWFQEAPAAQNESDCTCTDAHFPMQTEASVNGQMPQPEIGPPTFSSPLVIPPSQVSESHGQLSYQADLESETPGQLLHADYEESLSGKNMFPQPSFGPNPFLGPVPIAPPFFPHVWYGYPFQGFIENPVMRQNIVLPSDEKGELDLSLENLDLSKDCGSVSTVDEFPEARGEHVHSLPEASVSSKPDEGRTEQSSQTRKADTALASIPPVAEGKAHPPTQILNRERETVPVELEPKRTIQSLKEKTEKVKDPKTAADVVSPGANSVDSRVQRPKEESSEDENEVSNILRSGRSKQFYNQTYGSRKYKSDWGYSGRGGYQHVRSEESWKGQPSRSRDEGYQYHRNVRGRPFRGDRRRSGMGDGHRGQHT", "experiment": "SPR; Biacore T200; OTUD4 on a CM5 chip by amine coupling; various concentrations of PFKFB3 injected over the OTUD4 surface", "conditions": "both partners purified", "data": [{"binder": "B1", "values": [{"measurement": "Kd", "result": 250, "unit": "nM"}]}]}
